These results are taken from publication PMC9973270, “RdmA Is a Key Regulator in Autoinduction of DSF Quorum Quenching in Pseudomonas nitroreducens HS-18” (mBio, 2022).

The target of one data set is T1, RdmA (Pseudomonas nitroreducens, UniProt A0ABS0KS77).
T1 construct: gene I5I61_25840; full length, 206 residues; N-terminal His6 tag, vector pET32a, expressed in E. coli BL21(DE3); dimer proposed
T1 sequence (A0ABS0KS77 1-206): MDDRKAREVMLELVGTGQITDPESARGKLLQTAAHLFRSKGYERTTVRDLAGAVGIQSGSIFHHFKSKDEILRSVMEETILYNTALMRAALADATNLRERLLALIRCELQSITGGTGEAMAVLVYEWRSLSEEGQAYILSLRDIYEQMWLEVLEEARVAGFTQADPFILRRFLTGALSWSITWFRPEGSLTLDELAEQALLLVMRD
The experiment in a line: EMSA, inhibition of RdmA binding to biotin-labelled dmgA promoter. Particulars: RdmA 2 uM preincubated with DSF 30 min at 30 C before promoter fragment F1 (30 min, 22 C); solvent methanol.

Data set [1] has as its system T2, RdmA (Pseudomonas nitroreducens HS-18), ORF:ff03b8a4.
T2 sequence: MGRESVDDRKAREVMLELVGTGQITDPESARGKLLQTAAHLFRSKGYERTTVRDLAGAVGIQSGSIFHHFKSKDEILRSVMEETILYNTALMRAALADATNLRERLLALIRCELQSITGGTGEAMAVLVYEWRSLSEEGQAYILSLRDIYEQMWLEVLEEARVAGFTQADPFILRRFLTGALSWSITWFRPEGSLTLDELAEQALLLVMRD
The experiment in a line: EMSA. Particulars: LightShift chemiluminescent EMSA kit (buffer per manufacturer; pH and salt not stated), 10 uL, 2 nM biotin-DNA (20 fmol; Fig 5 legend says 10 nM), 0-4 uM RdmA …. Background: Mobility shift assays separate free from complexed probe on a gel.

Regarding `CC(C)CCCCCCC/C=C\C(=O)O` [DSF, cis-11-methyl-2-dodecenoic acid], on RdmA, the “concentration giving complete inhibition of DNA binding” value came to 0.9 mM. On to “GCTTTCTCTCCCCATGGGTCCCATCTGGCCACCTTGCTCAGGGCAATTCATCGAATCGCCCCGCAAGTGCTTGTGTTGTCTGACGAAATGTAAGCCCGCGAGTGCCAACCA (double strand) [PdmgA F4]”, for which the binding entry in data set [1] was “no binding”. The same measure, in the same setting: as for “GCTTTCTCTCCCCATGGGTCCCATCTGGCCACCTTGCTCAGGGCAATTCATCGAATCGCCCCGCAAGTGCTTGTGTTGTCTGACGAAATGTAAGCCCGCGAGTGCCAACCAAGCAAGCGCTTGG (double strand) [PdmgA F3]”, the entry is “binds more weakly”. Same read-out and setting: the result for “GCTTTCTCTCCCCATGGGTCCCATCTGGCCACCTTGCTCAGGGCAATTCATCGAATCGCCCCGCAAGTGCTTGTGTTGTCTGACGAAATGTAAGCCCGCGAGTGCCAACCAAGCAAGCGCTTGGCCATCCAATGGTTGGGGTAGTCATCGACTCGGGGCTTTTCAACCAAGCGCTTGCT (double strand) [PdmgA F2]” reads “binds more weakly”.
